Literature values as cited in patent US5874218.

System: T1, VEGF165 (Homo sapiens), P15692-4
T1 sequence: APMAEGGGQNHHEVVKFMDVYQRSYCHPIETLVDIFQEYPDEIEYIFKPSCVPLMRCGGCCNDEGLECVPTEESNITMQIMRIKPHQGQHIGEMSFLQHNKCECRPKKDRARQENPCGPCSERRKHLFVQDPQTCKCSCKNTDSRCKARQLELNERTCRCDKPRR
Conditions: modified to be nuclease resistant (Green et al. 1995); CITED; value stated for the ligand with reference to Green et al. 1995

NTTTTACCCUGAUGGUAGACGCCGGGGUGTTTTT [NX-244]
Kd: 0.14 nM
